B1: RHOBTB3 (parent)
chain: KVVEAHKIVLCAVSHVFMLLFNVK
B2: P2RY14 (parent)
chain: KLLSVIVWMLMLLLAVPNIILTNQ

Variants of: B1
Experiment: protein stability index of a GFP-peptide fusion (GPS, HEK-293T) (PSI 1-6); higher = more stable
Conditions: c terminus: a fixed tail appended
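Further: lentivirally expressed fusions sorted by FACS into six bins by GFP to DsRed ratio, PSI derived from sequencing read proportions per bin multiplied by bin number.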

Variant	protein stability index
KVVQAHKIVLCAVSHVFMLLFNVK [E4Q]	2.23
KVVHAHKIVLCAVSHVFMLLFNVK [E4H]	2.69
KVVSAHKIVLCAVSHVFMLLFNVK [E4S]	1.9
KVVLAHKIVLCAVSHVFMLLFNVK [E4L]	2.08
KVVTAHKIVLCAVSHVFMLLFNVK [E4T]	2.53
KVVWAHKIVLCAVSHVFMLLFNVK [E4W]	1.42
KVVYAHKIVLCAVSHVFMLLFNVK [E4Y]	2.75
KVVKAHKIVLCAVSHVFMLLFNVK [E4K]	3.02
KVVVAHKIVLCAVSHVFMLLFNVK [E4V]	2.79
KVVPAHKIVLCAVSHVFMLLFNVK [E4P]	2.37
KVVRAHKIVLCAVSHVFMLLFNVK [E4R]	2.69
KVVFAHKIVLCAVSHVFMLLFNVK [E4F]	2.23
KVVAAHKIVLCAVSHVFMLLFNVK [E4A]	2.24
KVVIAHKIVLCAVSHVFMLLFNVK [E4I]	2.78
KVVMAHKIVLCAVSHVFMLLFNVK [E4M]	2.54
KVVDAHKIVLCAVSHVFMLLFNVK [E4D]	2.33
KVVCAHKIVLCAVSHVFMLLFNVK [E4C]	2.67
KNVEAHKIVLCAVSHVFMLLFNVK [V2N]	2.44
KQVEAHKIVLCAVSHVFMLLFNVK [V2Q]	2.04
KMVEAHKIVLCAVSHVFMLLFNVK [V2M]	2.9
KIVEAHKIVLCAVSHVFMLLFNVK [V2I]	3.58
KPVEAHKIVLCAVSHVFMLLFNVK [V2P]	3.44
KLVEAHKIVLCAVSHVFMLLFNVK [V2L]	2.32
KCVEAHKIVLCAVSHVFMLLFNVK [V2C]	2.18

Variant	protein stability index
KAVEAHKIVLCAVSHVFMLLFNVK [V2A]	2.96
KKVEAHKIVLCAVSHVFMLLFNVK [V2K]	1.62
KEVEAHKIVLCAVSHVFMLLFNVK [V2E]	2.64
KFVEAHKIVLCAVSHVFMLLFNVK [V2F]	2.5
KSVEAHKIVLCAVSHVFMLLFNVK [V2S]	3.24
KGVEAHKIVLCAVSHVFMLLFNVK [V2G]	2.64
KYVEAHKIVLCAVSHVFMLLFNVK [V2Y]	1.86
KTVEAHKIVLCAVSHVFMLLFNVK [V2T]	2.6
KDVEAHKIVLCAVSHVFMLLFNVK [V2D]	2.57
NVVEAHKIVLCAVSHVFMLLFNVK [K1N]	2.52
EVVEAHKIVLCAVSHVFMLLFNVK [K1E]	3.04
IVVEAHKIVLCAVSHVFMLLFNVK [K1I]	2.87
DVVEAHKIVLCAVSHVFMLLFNVK [K1D]	4.55
FVVEAHKIVLCAVSHVFMLLFNVK [K1F]	4.17
TVVEAHKIVLCAVSHVFMLLFNVK [K1T]	2.71
LVVEAHKIVLCAVSHVFMLLFNVK [K1L]	3.15
QVVEAHKIVLCAVSHVFMLLFNVK [K1Q]	1.9
AVVEAHKIVLCAVSHVFMLLFNVK [K1A]	3.06
RVVEAHKIVLCAVSHVFMLLFNVK [K1R]	2.68
CVVEAHKIVLCAVSHVFMLLFNVK [K1C]	3.06
YVVEAHKIVLCAVSHVFMLLFNVK [K1Y]	2.58
HVVEAHKIVLCAVSHVFMLLFNVK [K1H]	2.2
PVVEAHKIVLCAVSHVFMLLFNVK [K1P]	3.1
WVVEAHKIVLCAVSHVFMLLFNVK [K1W]	3.19

Variant	protein stability index
GVVEAHKIVLCAVSHVFMLLFNVK [K1G]	2.31
SVVEAHKIVLCAVSHVFMLLFNVK [K1S]	2.46
KVVETHKIVLCAVSHVFMLLFNVK [A5T]	1.72
KVVEWHKIVLCAVSHVFMLLFNVK [A5W]	3.03
KVVEHHKIVLCAVSHVFMLLFNVK [A5H]	2.9
KVVEGHKIVLCAVSHVFMLLFNVK [A5G]	3.1
KVVEQHKIVLCAVSHVFMLLFNVK [A5Q]	4.3
KVVEVHKIVLCAVSHVFMLLFNVK [A5V]	2.48
KVVEMHKIVLCAVSHVFMLLFNVK [A5M]	3.42
KVVENHKIVLCAVSHVFMLLFNVK [A5N]	2.07
KVVELHKIVLCAVSHVFMLLFNVK [A5L]	1.76
KVVEFHKIVLCAVSHVFMLLFNVK [A5F]	2.45
KVVESHKIVLCAVSHVFMLLFNVK [A5S]	3.05
KVVECHKIVLCAVSHVFMLLFNVK [A5C]	2.77
KVVEDHKIVLCAVSHVFMLLFNVK [A5D]	3.37
KVVERHKIVLCAVSHVFMLLFNVK [A5R]	3.59
KVVEYHKIVLCAVSHVFMLLFNVK [A5Y]	3.88
KVVEPHKIVLCAVSHVFMLLFNVK [A5P]	3.11
KVVEKHKIVLCAVSHVFMLLFNVK [A5K]	2.58
KVVEEHKIVLCAVSHVFMLLFNVK [A5E]	3.14
KVLEAHKIVLCAVSHVFMLLFNVK [V3L]	2.09
KVREAHKIVLCAVSHVFMLLFNVK [V3R]	2.02
KVNEAHKIVLCAVSHVFMLLFNVK [V3N]	3.87
KVIEAHKIVLCAVSHVFMLLFNVK [V3I]	3.11

Variant	protein stability index
KVDEAHKIVLCAVSHVFMLLFNVK [V3D]	2.2
KVGEAHKIVLCAVSHVFMLLFNVK [V3G]	2.38
KVYEAHKIVLCAVSHVFMLLFNVK [V3Y]	2.53
KVMEAHKIVLCAVSHVFMLLFNVK [V3M]	3.1
KVEEAHKIVLCAVSHVFMLLFNVK [V3E]	1.82
KVQEAHKIVLCAVSHVFMLLFNVK [V3Q]	3.48
KVCEAHKIVLCAVSHVFMLLFNVK [V3C]	2.3
KVPEAHKIVLCAVSHVFMLLFNVK [V3P]	3.35
KVKEAHKIVLCAVSHVFMLLFNVK [V3K]	3.12
KVFEAHKIVLCAVSHVFMLLFNVK [V3F]	3.62
KVTEAHKIVLCAVSHVFMLLFNVK [V3T]	2.36
KVSEAHKIVLCAVSHVFMLLFNVK [V3S]	2.39
KVVEAHQIVLCAVSHVFMLLFNVK [K7Q]	3
KVVEAHTIVLCAVSHVFMLLFNVK [K7T]	2.64
KVVEAHEIVLCAVSHVFMLLFNVK [K7E]	2.9
KVVEAHVIVLCAVSHVFMLLFNVK [K7V]	2.31
KVVEAHYIVLCAVSHVFMLLFNVK [K7Y]	3.35
KVVEAHRIVLCAVSHVFMLLFNVK [K7R]	2.65
KVVEAHPIVLCAVSHVFMLLFNVK [K7P]	2.02
KVVEAHGIVLCAVSHVFMLLFNVK [K7G]	2.79
KVVEAHFIVLCAVSHVFMLLFNVK [K7F]	2.99
KVVEAHAIVLCAVSHVFMLLFNVK [K7A]	3.36
KVVEAHCIVLCAVSHVFMLLFNVK [K7C]	1.83
KVVEAHDIVLCAVSHVFMLLFNVK [K7D]	3.98

Variant	protein stability index
KVVEAHLIVLCAVSHVFMLLFNVK [K7L]	2.74
KVVEAHMIVLCAVSHVFMLLFNVK [K7M]	2.93
KVVEAHNIVLCAVSHVFMLLFNVK [K7N]	2.31
KVVEAHWIVLCAVSHVFMLLFNVK [K7W]	2.34
KVVEAHSIVLCAVSHVFMLLFNVK [K7S]	2.01
KVVEAQKIVLCAVSHVFMLLFNVK [H6Q]	1.5
KVVEAIKIVLCAVSHVFMLLFNVK [H6I]	1.85
KVVEAPKIVLCAVSHVFMLLFNVK [H6P]	2.4
KVVEAKKIVLCAVSHVFMLLFNVK [H6K]	2.65
KVVEATKIVLCAVSHVFMLLFNVK [H6T]	1.79
KVVEAGKIVLCAVSHVFMLLFNVK [H6G]	1.84
KVVEACKIVLCAVSHVFMLLFNVK [H6C]	2.58
KVVEARKIVLCAVSHVFMLLFNVK [H6R]	3.29
KVVEAAKIVLCAVSHVFMLLFNVK [H6A]	1.84
KVVEAMKIVLCAVSHVFMLLFNVK [H6M]	1.63
KVVEAFKIVLCAVSHVFMLLFNVK [H6F]	2.13
KVVEASKIVLCAVSHVFMLLFNVK [H6S]	1.92
KVVEANKIVLCAVSHVFMLLFNVK [H6N]	3.4
KVVEALKIVLCAVSHVFMLLFNVK [H6L]	1.75
KVVEAVKIVLCAVSHVFMLLFNVK [H6V]	1.77
KVVEAWKIVLCAVSHVFMLLFNVK [H6W]	2.24
KVVEAEKIVLCAVSHVFMLLFNVK [H6E]	2.21

Variants of: B2
Experiment: as above
Conditions: c terminus: a fixed tail appended

Variant	protein stability index
KLLSVIVWMLMLLLAVPNIILHNQ [T22H]	2.69
KLLSVIVWMLMLLLAVPNIILANQ [T22A]	2.75
KLLSVIVWMLMLLLPVPNIILTNQ [A15P]	2.35
KLLSVIVWMLMLLLAVPNIILTDQ [N23D]	3.86
KLLPVIVWMLMLLLAVPNIILTNQ [S4P]	3.34
KLLGVIVWMLMLLLAVPNIILTNQ [S4G]	2.85
KLLKVIVWMLMLLLAVPNIILTNQ [S4K]	5.66
KLLWVIVWMLMLLLAVPNIILTNQ [S4W]	4.74
KLLFVIVWMLMLLLAVPNIILTNQ [S4F]	2.98
KLLSVIVWMLMLLKAVPNIILTNQ [L14K]	2.95
KLLSVIVWMLMLLTAVPNIILTNQ [L14T]	3.16
KLLSVIVWMLMLLIAVPNIILTNQ [L14I]	2.49
KLLSVIVWMLMLLVAVPNIILTNQ [L14V]	1.32
KLLSVIVWMLMLLGAVPNIILTNQ [L14G]	2.27
KLLSVIVWMLMLLLAVPNIVLTNQ [I20V]	2.79
KLLSVIVWMLMLLLAVPNIFLTNQ [I20F]	2.73
KLLSVIVWMLMLLLAVPNISLTNQ [I20S]	3.35
KLLSVIVWMLMLLLAVPAIILTNQ [N18A]	1.99
KLLSVIVWMLMLLLAVPGIILTNQ [N18G]	3.62
KLLSVIVWMLMLLLAVPTIILTNQ [N18T]	2.89
KLLSVIVWMLMLLLAVPLIILTNQ [N18L]	1.65
KLLSVIVWMLMLLLAVPEIILTNQ [N18E]	2.5
KLLSVIVWMLMLLLAVPNIICTNQ [L21C]	3.7
KLLSVIVWMLMLLLAVPNIIHTNQ [L21H]	2.2

Variant	protein stability index
KLLSVIVWMLMLLLAVPNIIRTNQ [L21R]	4.98
KLLSVIVWMLMLLLAVPNIIETNQ [L21E]	2.6
KLLSVIPWMLMLLLAVPNIILTNQ [V7P]	2.8
KLLSVIRWMLMLLLAVPNIILTNQ [V7R]	2.31
KLLSVIMWMLMLLLAVPNIILTNQ [V7M]	3.08
KLLSVIHWMLMLLLAVPNIILTNQ [V7H]	2.11
KDLSVIVWMLMLLLAVPNIILTNQ [L2D]	2.67
KILSVIVWMLMLLLAVPNIILTNQ [L2I]	3.46
KLLSVIVWMLMCLLAVPNIILTNQ [L12C]	3.75
KLLSWIVWMLMLLLAVPNIILTNQ [V5W]	2.74
KLLSPIVWMLMLLLAVPNIILTNQ [V5P]	2.54
KLLSSIVWMLMLLLAVPNIILTNQ [V5S]	3.98
KLLSRIVWMLMLLLAVPNIILTNQ [V5R]	2.79
KLLSYIVWMLMLLLAVPNIILTNQ [V5Y]	2.63
KLLSVIVWMLHLLLAVPNIILTNQ [M11H]	3
KLLSVIVWMLSLLLAVPNIILTNQ [M11S]	2.01
KLLSVIVWMLMLRLAVPNIILTNQ [L13R]	2.15
KLLSVIVWMLMLPLAVPNIILTNQ [L13P]	3.47
KLLSVIVWMLMLLLAVPNMILTNQ [I19M]	1.29
KLLSVIVWMLMLLLAVPNPILTNQ [I19P]	3.43
KLLSVIVWMLMLLLAVPNKILTNQ [I19K]	1.76
KLLSVIVWMLMLLLAVPNDILTNQ [I19D]	2.8
KLLSVIVWMLMLLLAVPNRILTNQ [I19R]	2.2
KLLSVIVWKLMLLLAVPNIILTNQ [M9K]	3.05

Variant	protein stability index
KLLSVIVWWLMLLLAVPNIILTNQ [M9W]	2.15
KLLSVIVWDLMLLLAVPNIILTNQ [M9D]	4.27
KLLSVIVWMPMLLLAVPNIILTNQ [L10P]	2.86
KLLSVIVWMCMLLLAVPNIILTNQ [L10C]	1.39
KLLSVIVWMFMLLLAVPNIILTNQ [L10F]	3.32
KLLSVIVWMTMLLLAVPNIILTNQ [L10T]	3.58
KLLSVIVWMLMLLLAVINIILTNQ [P17I]	1.95
KLLSVIVWMLMLLLAVVNIILTNQ [P17V]	1.23
KLLSVIVWMLMLLLAVGNIILTNQ [P17G]	3.39
KLLSVIVWMLMLLLAVRNIILTNQ [P17R]	2.8
KLLSVIVWMLMLLLALPNIILTNQ [V16L]	3.59
KLLSVIVWMLMLLLAIPNIILTNQ [V16I]	3.43
KLLSVIVWMLMLLLATPNIILTNQ [V16T]	2.01
KLLSVGVWMLMLLLAVPNIILTNQ [I6G]	2.2
KLLSVDVWMLMLLLAVPNIILTNQ [I6D]	2.02
ILLSVIVWMLMLLLAVPNIILTNQ [K1I]	2.53
WLLSVIVWMLMLLLAVPNIILTNQ [K1W]	1.35
KLKSVIVWMLMLLLAVPNIILTNQ [L3K]	3.61
KLESVIVWMLMLLLAVPNIILTNQ [L3E]	2.78
KLNSVIVWMLMLLLAVPNIILTNQ [L3N]	4.61
KLLSVIVWMLMLLLAVPNIILTNW [Q24W]	2.33
KLLSVIVWMLMLLLAVPNIILTNP [Q24P]	2.59

— the supplement of paper PMC10567573
